Patent US20240368230, “CELL-PENETRATING PEPTIDES COMPRISING MULTIPLE 5-MER ALPHA-HELIX FRAGMENTS AND USES […]” (ArtProBio Co., Ltd., published 2024)

Molecular target: Tat peptide (47-57) (Human immunodeficiency virus 1)
Experiment: EMSA; non-cognate RNA; higher affinity than CPP11; 10 mM potassium phosphate pH 7.5, 100 mM NaCl
Details: protein: synthetic; tags: chemically synthesized peptide; stem-loop

## GGACCUGGUAUGGGCGCAGCGCAAGCUGACGGUACAGGCCAGGUCC (ssRNA) [wild-type RRE IIB RNA]
  binding result: binds
